# Target: human transforming growth factor β2 (TGFβ2) (human) (UniProt P61812)
# Assay: cell-based or functional assay
# Sequence of human transforming growth factor β2 (TGFβ2) (human) (P61812 303-414): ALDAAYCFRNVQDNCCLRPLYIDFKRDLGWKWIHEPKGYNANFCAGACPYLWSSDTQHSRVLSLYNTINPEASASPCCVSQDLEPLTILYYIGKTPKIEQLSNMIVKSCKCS
substance,measurement,value
latency associated peptide (LAP),"Ki, reversal of TGFβ2-mediated inhibition of 3H-thymidine incorporation in mink lung epithelial cells",0.5 nM

# Source: US20030064943A1
